This is an account of results in patent US20220105163A1.

For assay [1], the target named is Recombinant human IL-6 (human) (UniProt P05231). The experiment in a line: cell-based or functional assay.
Assay [2] deals with IL-6 receptor on TF-1 cells (human) (UniProt P08887). The experiment in a line: cell-based or functional assay.
Sequence of IL-6 receptor on TF-1 cells (human) (P08887 20-468): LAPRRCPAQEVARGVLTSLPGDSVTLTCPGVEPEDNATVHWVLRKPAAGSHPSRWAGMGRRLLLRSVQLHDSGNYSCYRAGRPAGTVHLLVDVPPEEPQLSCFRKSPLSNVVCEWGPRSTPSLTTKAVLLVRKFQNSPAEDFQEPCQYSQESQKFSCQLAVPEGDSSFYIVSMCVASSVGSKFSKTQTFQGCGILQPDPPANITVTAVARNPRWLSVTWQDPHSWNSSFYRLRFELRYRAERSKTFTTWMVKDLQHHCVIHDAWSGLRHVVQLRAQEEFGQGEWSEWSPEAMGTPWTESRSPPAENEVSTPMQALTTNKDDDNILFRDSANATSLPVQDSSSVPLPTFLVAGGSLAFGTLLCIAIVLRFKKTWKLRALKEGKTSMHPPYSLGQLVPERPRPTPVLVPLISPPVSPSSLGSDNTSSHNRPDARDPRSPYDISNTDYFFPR

Sequence of Recombinant human IL-6 (human) (P05231 30-212 limits assumed): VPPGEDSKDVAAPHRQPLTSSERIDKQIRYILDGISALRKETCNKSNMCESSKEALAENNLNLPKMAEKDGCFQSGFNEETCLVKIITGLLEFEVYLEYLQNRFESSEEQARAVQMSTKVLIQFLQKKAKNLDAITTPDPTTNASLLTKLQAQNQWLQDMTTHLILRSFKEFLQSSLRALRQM

Consider Non GP IgG (antibody), for which the IC50 (µg/mL), IL-6 induced TF-1 proliferation in assay [1] is more than 100 µg/mL.

Turning to Tocilizumab (antibody), the IC50 (µg/mL), IL-6 induced TF-1 proliferation in assay [2] amounted to 0.365 µg/mL.
